Values of other authors as cited in publication PMC6504839.
Where two headings read alike, the source gives them in different places.

Legend:
[1] = target: integrin αIIbβ3 (Homo sapiens) (UniProt P08514)
[2] = target: integrin αIIbβ3 (Homo sapiens) (UniProt P08514); remark: listed apart in the source

| Substance | Kd [1] | Kd [2] |
| --- | --- | --- |
| Disagregin (from UniProt P36235) | 40 nM | – |
| Savignygrin (from UniProt Q8MVZ3) | – | 60 nM |
